# B1: C1ORF32 ECD-Fc (SEQ ID NO:42): fusion protein of human C1ORF32 ECD fused to mouse immunoglobulin Fc (human-mouse fusion protein) (protein)
# chain: LQVTVPDKKKVAMLFQPTVLRCHFSTSSHQPAVVQWKFKSYCQDRMGESLGMSSTRAQSLSKRNLEWDPYLDCLDSRRTVRVVASKQGSTVTLGDFYRGREITIVHDADLQIGKLMWGDSGLYYCIITTPDDLEGKNEDSVELLVLGRTGLLADLLPSFAVEIMGSENLYFQGSGEPRGPTIKPCPPCKCPAPNLLGGPSVFIFPPKIKDVLMISLSPIVTCVVVDVSEDDPDVQISWFVNNVEVHTAQTQTHREDYNSTLRVVSALPIQHQDWMSGKEFKCKVNNKDLPAPIERTISKPKGSVRAPQVYVLPPPEEEMTKKQVTLTCMVTDFMPEDIYVEWTNNGKTELNYKNTEPVLDSDGSYFMYSKLRVEKKNWVERNSYSCSVVHEGLHNHHTTKSFSRTPGK
# modifications: Fusion protein human C1ORF32-ECD fused to mouse IgG2a Fc
# Experiments:
# [1] = test system: Female C57BL/6 recipient mice (CD45.2+); assay: HY bone marrow transplantation model, male CD45.1 BM into female CD45.2 mice (FACS of blood and spleen); type: in vivo, mouse
# Source text: A transplantation model utilizing male bone marrow (BM) cells from C57BL/6 mice transplanted into female mice of the same starin was used to study whether C1ORF32 ECD-Fc induces immune tolerance. In this model BM cells of the male mouse are rejected by the female recipients due to mismatch in the minor histocompatibility antigen encoded by the Y chromosome (Hya). To allow identification of the male cells in the female mice blood, male mice expressing CD45.1 isotype were selected while the female mice carry CD45.2 isotype. This model provides a tool for testing the effect of potential drugs on induction of tolerance towards the grafted cells.
# In this model, C1ORF32 ECD-Fc (SEQ ID NO:42) treatment started one week before bone marrow transplantation and continued for five weeks. Female recipient mice were followed for percentage of CD45.1+ and CD45.2+ cells present within the blood.
# Female C57BL/6 recipient mice (CD45.2+) were sub-lethally irradiated with 200 rads/cGy 24 hours before transplantation of either female C57Bl/6 (CD45.1+) or male C57Bl/6 (CD45.1+) 5×10^6 bone marrow cells. Recipient mice were allocated into treatment groups as detailed below (n=6 per group). Treatments were given at 300 ug/dose i.p, 3×/wk starting one week prior to transplantation and continued for 4 weeks following transplantation, giving a total of 15 treatments during this 5 weeks period.
# 1. Female CD45.1 into female CD45.2 2. Male CD45.1 into female CD45.2+anti-CD40L (300 ug/dose) (Clone MR-1; BioXCell, Cat#BE0017-1) 3. Male CD45.1 into female CD45.2+C1ORF ECD-Fc (SEQ ID NO:42) (300 ug/dose)2 4. Male CD45.1 into female CD45.2+Control Ig (mouse IgG2a) (300 ug/dose)
# Beginning at 2 weeks following bone marrow transplantation, blood samples from the tail were collected from each mouse once a week for 4 weeks. Approximately 2-3 drops of blood were collected per mouse into 200 ul of PBS+EDTA (50 mM), samples were spun down, and RBCs lysed with ammonium chloride. The cells were washed 3× with PBS, stained with the viability dye Aqua Dead Cell Stain (Invitrogen; Cat#L34957), blocked with Fc Receptor block (anti-mouse CD16/32; eBioscience; Cat#14-0161-86), and stained with anti-mouse CD45.1 APC-Cy7 (eBiosciences; Cat#47-0453-80) and anti-mouse CD45.2 FITC (eBioscience; Cat#11-0454-82). The analysis for chimerism was determined by flow cytometric analysis (on total live cells) for the percentage of CD45.1+ versus CD45.2+ cells present in the blood of female recipient mice.
# During weeks 6, 7, and 8 the blood samples were also stained to determine the percentage of CD4+ Teff cells and CD4+ Treg cells present within the blood using the cellular markers CD44, CD25, and FoxP3. Details of the Abs used in the flow panels for weeks 6, 7, and 8 are listed below.
# These same populations of cells were analyzed at week 8 within the spleen. In addition, the proliferative and secreted cytokine responses of total splenocytes in ex vivo recall cultures were tested in the presence of medium alone, anti-CD3 (1 ug/ml), the HY antigen DBY peptide (NAGFNSNRANSSRSS; Genemed Synthesis; San Antonio, Tex.) (10 ug/ml), irradiated male splenocytes (1:1 ratio), or irradiated female splenocytes (1:1 ratio).
# [2] = test system: healthy human skin transplanted onto beige-SCID mice; assay: Humanized psoriasis model: healthy human skin xenotransplants on beige-SCID mice injected with psoriatic patients' PBMCs; type: in vivo, mouse; conditions: IHC, vs PBS treated group
# Source text: In this model, psoriasis is induced in xenotransplants of healthy human skin transplanted onto beige severe combined immunodeficiency (SCID) mice followed by intradermal (i.d.) injection of IL-2 enriched Peripheral Blood Mononuclear Cells (PBMCs) isolated from blood of psoriasis patients (Nickoloff, 1995; Wrone-Smith, 1996 Gilhar et al., 2002, 2006, 2011). The activity of these compounds was compared to that of Enbrel, a TNF inhibitor which is an approved biological drug for treatment of psoriasis. As a control for model robustness, we used dexamethasone, a steroid with suppressive effects on inflammatory cytokines and chemokines such as TNF-alpha and interferon-gamma which cause severe psoriasis. All treatments were administered intradermally, except for dexamethasone which was given topically.
# Study Protocol: A) Healthy human skin pieces with a width of 0.4 mm and surface area of 1.5×1.5 cm were provided from residual skin of routine plastic surgery procedures from the Plastic Surgery Department of the Rambam Medical Center, Israel. In addition, 20 mL blood samples were taken from psoriatic patients. B) Seventy (70) beige-severe combined immunodeficient mice (SCID) (weight˜20-25 g) were included in this study. Normal healthy human donor skin was transplanted onto the beige-SCID mice as previously described (Nickoloff et al., 1995; Wrone-Smith, 1996; Gilhar et al., 2002, 2006, 2011; Kalish et al., 2009) and the mice were divided into 7 groups. C) Peripheral Blood Mononuclear Cells (PBMCs) isolated from psoriatic patients' blood were cultured in the presence of IL-2 [Prospec, 100 U/mL of RPMI 1640 media, 10% human AB serum (Sigma, St. Louis, Mo.), 1% glutamine, 1% antibiotics (media components; Biological Industries, Kibbutz Beit Haemeck, Israel)] for 14 days, as previously described (Gilhar et al, 2002). D) Four weeks following engraftment, each mouse was injected intra-dermally (i.d.) into the grafted skin lesion, with 1×10^7 activated allogeneic enriched PBMCs from psoriatic patients (FIG. 20). Cells from different psoriasis patients were equally distributed between treatment groups so that each patient is represented in each treatment group. E) On the day of PBMCs injection into the skin grafts, mice were divided randomly into treatment groups (n=9-10 mice per group) and administration of all drugs started (FIG. 20). All tested compounds including the vehicle were given intradermally (intralesional), three times a week, except for dexamethasone which was given topically for 14 consecutive days (Table 3).
# F) Twenty eight days after starting the injections and treatment, skin was harvested (FIG. 20). Grafts were analyzed for the following psoriatic parameters by histology: epidermal thickening (acanthosis), suprapapillary epidermal thinning (papillomatosis), hyperkeratosis, parakeratosis, orthokeratosis, agranulosis-hypogranulosis, appearance of neutrophils in the upper spinous layer or in the corneal cell layer—Munro microabscess, regular elongation of rete ridges, angiogenesis, edema and dilated tortuous blood vessels in the dermal papilla and mononuclear cell infiltrate in the papillary dermis. Epidermal thickness was measured as detailed below, and HLA-DR, ICAM-1, Ki-67 and immune infiltrates (anti-CD3 stain) were evaluated by immunohistochemistry (IHC).
# The entire skin graft was excised and placed in 10% formal saline overnight. Then, the specimens were place in 70% ethanol and were embedded according to the standard H&E protocol. Histological assessment of the skin grafts was performed by light microscopy and evaluated by two blinded observers [the second observer evaluated random slides (about 25% of all slides) to compare the data obtained by the first observer. […] Epidermal thickness was determined with an ocular micrometer at a minimum of 50 points along the epidermis selected to represent points of maximal and minimal thickness.
# Representative grafts were allocated for IHC analysis. […]
# [3] = week 6 post transplant, vs Control Ig
molecule,measurement,setting,value
B1,graft rejection,[1]; 5 week dosing schedule beginning one week before transplant,effective in preventing graft rejection
same,male donor CD45.1+ cells present in the blood of recipient females,"[1]; week 4 post transplant, maintained until week 8, 300 ug/dose i.p. 3x/wk for 5 wks",highly significant number of male CD45.1+ cells were present
same,effector/memory CD4+ T cells (CD45.1+/CD4+/CD44hi) within the blood,[1]; [3],decrease
same,resting CD4+ T cells (CD45.1+/CD4+/CD44lo) in blood,[1]; [3],significantly higher percentage
same,activated donor CD4+ T cells (CD45.1+/CD4+/CD25+/FoxP3-) in blood,"[1]; week 7 post transplant, vs Control Ig",significantly lower percentage
same,number of donor-derived (CD45.1+) CD4+/CD25+/FoxP3+ Treg cells and Treg subpopulations in spleen,[1]; week 8,striking increase
same,donor (CD45.1+) Tregs (FoxP3+CD25+) in blood,"[1]; week 8, vs Control Ig",significant increase
same,donor (CD45.1+) activated CD4+ T cells (FoxP3-CD25+) in blood,"[1]; week 8, vs Control Ig",decrease
same,donor (CD45.1+) effector/memory CD4+ T cells (CD44hi) in blood,"[1]; week 8, vs Control Ig",significant increase
same,number of endogenous-derived (CD45.2+) Tregs and Treg subtypes in spleen,"[1]; week 8, vs Ig control group",reduced
same,percentage and number of CD45.1+/CD4+ T cells within the spleen,[1]; week 8 post transplant,increased
same,infiltration of T cells (CD3 positive cells),[2],significant reduction of CD3 positive cells

# Reference: patent US20170275344A1, “POLYPEPTIDES AND USES THEREOF AS A DRUG FOR TREATMENT OF AUTOIMMUNE DISORDERS” (Compugen Ltd., priority 2014, published 2017)
